Reference: publication PMC11310338

B1: SCAF8-CID domain fragment comprising residues 1-139 (domain or fragment)
chain: MEAVKTFNSELYSLNDYKPPISKAKMTQITKAAIKAIKFYKHVVQSVEKFIQKCKPEYKVPGLYVIDSIVRQSRHQFGQEKDVFAPRFSNNIISTFQNLYRCPGDDKSKIVRVLNLWQKNNVFKSEIIQPLLDMAAGIP
B2: Human SCAF4-CID domain fragment comprising residues 1-139 (domain or fragment)
chain: MDAVNAFNQELFSLMDMKPPISRAKMILITKAAIKAIKLYKHVVQIVEKFIKKCKPEYKVPGLYVIDSIVRQSRHQFGTDKDVFGPRFSKNITATFQYLYLCPSEDKSKIVRVLNLWQKNGVFKIEIIQPLLDMAAGTS

Molecular target: phosphorylated CTD peptide (pS2pS5) of RNAP2 labeled with an NH2 terminal FITC group
Experiment: fluorescence polarisation

Kd | Binder
622 nM | B1
366 nM | B2
